Like-named read-outs stand apart in the source and are kept apart here.
B1: catabolite repressor activator protein (Cra), wild-type (natural protein, E. coli, UniProt P0ACP1 1-334, looked up)
chain: MKLDEIARLAGVSRTTASYVINGKAKQYRVSDKTVEKVMAVVREHNYHPNAVAAGLRAGRTRSIGLVIPDLENTSYTRIANYLERQARQRGYQLLIACSEDQPDNEMRCIEHLLQRQVDAIIVSTSLPPEHPFYQRWANDPFPIVALDRALDREHFTSVVGADQDDAEMLAEELRKFPAETVLYLGALPELSVSFLREQGFRTAWKDDPREVHFLYANSYEREAAAQLFEKWLETHPMPQALFTTSFALLQGVMDVTLRRDGKLPSDLAIATFGDNELLDFLQCPVLAVAQRHRDVAERVLEIVLASLDEPRKPKPGLTRIKRNLYRRGVLSRS

Key:
[1] = biological target: T1, Cra (FruR);FruK (fructose-1-kinase, 1-phosphofructokinase) (Escherichia coli strain 3.300 …, UniProt P0ACP1;P0AEW9 1-334;1-312, |); assay: BLI
[2] = biological target: T2, Cra (FruR) (Escherichia coli strain 3.300 …, UniProt P0ACP1 1-334); assay: BLI
[3] = biological target: the molecule itself; assay: elution from a phosphocellulose column
[4] = biological target: T1, Cra (FruR);FruK (fructose-1-kinase, …); assay: BLI; remark: listed apart in the source
[5] = biological target: B1; assay: pull-down
[6] = biological target: T2, Cra (FruR); assay: filter binding
[7] = biological target: T1, Cra (FruR);FruK (fructose-1-kinase, …); assay: BLI; remark: listed apart in the source

| Binder | binding result [2] | Kd [6] [nM] | further results |
| --- | --- | --- | --- |
| aceB operator (BLI) (dsDNA) DNA 1: ATGCATGTTGTGTGGGCTGAATCGCTTAACGTCACACAGGTGTCC DNA 2: GGACACCTGTGTGACGTTAAGCGATTCAGCCCACACAACATGCAT | binds | – | binding result [1]: binds |
| B1 | – | – | stoichiometry N [3]: 2 |
| fruB proximal operator (BLI) (dsDNA) DNA 1: ATGCATGTTGTGTGGTTCTTGAAACGTTTCAGCTCACACAGGTCC DNA 2: GGACCTGTGTGAGCTGAAACGTTTCAAGAACCACACAACATGCAT | binds | – | binding result [4]: binds |
| fructose-1-kinase (FruK), recombinant, separately purified (enzyme, E. coli, UniProt P0AEW9 1-312, looked up) MSRRVATITLNPAYDLVGFCPEIERGEVNLVKTTGLHAAGKGINVAKVLKDLGIDVTVGGFLGKDNQDGFQQLFSELGIANRFQVVQGRTRINVKLTEKDGEVTDFNFSGFEVTPADWERFVTDSLSWLGQFDMVCVSGSLPSGVSPEAFTDWMTRLRSQCPCIIFDSSREALVAGLKAAPWLVKPNRRELEIWAGRKLPEMKDVIEAAHALREQGIAHVVISLGAEGALWVNASGEWIAKPPSVDVVSTVGAGDSMVGGLIYGLLMRESSEHTLRLATAVAALAVSQSNVGITDRPQLAAMMARVDLQPFN | – | – | Kd [5]: < 100 nM |
| fruB proximal operator (filter binding) (dsDNA) DNA 1: TGTTGTGTGGTTCTTGAAACGTTTCAGCTCACACAGG DNA 2: CCTGTGTGAGCTGAAACGTTTCAAGAACCACACAACA | – | 0.018 | – |
| fruB distal operator (filter binding) (dsDNA) DNA 1: TGTTGTGTGGGAGGCTGAATCGTTTCAATCACACAGG DNA 2: CCTGTGTGATTGAAACGATTCAGCCTCCCACACAACA | – | 0.018 | – |
| pfkA operator (BLI) (dsDNA) DNA 1: ATGCATGTTGTGTGGCCTGAATCAATTCAGCTCACACAGGTGTCC DNA 2: GGACACCTGTGTGAGCTGAATTGATTCAGGCCACACAACATGCAT | binds | – | binding result [7]: binds |
| aceB operator (filter binding) (dsDNA) DNA 1: TGTTGTGTGGGCTGAATCGCTTAACGTCACACAGG DNA 2: CCTGTGTGACGTTAAGCGATTCAGCCCACACAACA | – | 1.7 | – |

Source: article doi:10.1101/201277 (bioRxiv, 2017)
